Non-standard residues stand in square brackets, D forms with d. No end group written: not given here. *: point of attachment. NMeF = CN[C@@H](Cc1ccccc1)C(=O)O; 125I = [125I]*
Key:
[1] = target: rat spinal cord membrane receptor; experiment: competition with [125I]D-Tyr-NPFF, rat spinal cord membranes
[2] = target: rat neuropeptide FF receptor (NPFF1) (rat) (UniProt Q9EP86); experiment: competition with [125I]D-Tyr-NPFF, membranes of COS-7 cells with rat NPFF1
[3] = target: T1, rat neuropeptide FF receptor (NPFF1) (rat, UniProt Q9EP86 1-432); experiment: as above
Excerpt: (§1) Cos-7 cells transiently expressing the gene encoding the novel rat NPFF1 receptor were used for pharmacological evaluation.

[4] = target: T2, human neuropeptide FF receptor (NPFF1) (human, UniProt Q9GZQ6 1-430); experiment: cell-based or functional assay
T2 sequence (Q9GZQ6 whole entry): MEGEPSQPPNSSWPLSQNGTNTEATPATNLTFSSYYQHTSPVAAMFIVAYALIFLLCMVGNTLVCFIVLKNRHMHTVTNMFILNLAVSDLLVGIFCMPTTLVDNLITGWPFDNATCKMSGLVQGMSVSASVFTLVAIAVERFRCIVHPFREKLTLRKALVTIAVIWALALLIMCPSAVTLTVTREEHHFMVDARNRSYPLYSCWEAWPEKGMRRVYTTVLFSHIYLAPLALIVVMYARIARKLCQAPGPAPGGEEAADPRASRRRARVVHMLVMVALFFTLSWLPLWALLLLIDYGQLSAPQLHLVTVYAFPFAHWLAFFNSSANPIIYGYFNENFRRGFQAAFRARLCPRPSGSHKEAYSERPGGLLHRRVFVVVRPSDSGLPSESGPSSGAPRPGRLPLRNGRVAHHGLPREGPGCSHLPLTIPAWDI

[5] = target: T3, human NPFF2b (hNPFF2) receptor (human, UniProt Q9Y5X5 103-522); experiment: cell-based or functional assay
T3 sequence (Q9Y5X5 103-522): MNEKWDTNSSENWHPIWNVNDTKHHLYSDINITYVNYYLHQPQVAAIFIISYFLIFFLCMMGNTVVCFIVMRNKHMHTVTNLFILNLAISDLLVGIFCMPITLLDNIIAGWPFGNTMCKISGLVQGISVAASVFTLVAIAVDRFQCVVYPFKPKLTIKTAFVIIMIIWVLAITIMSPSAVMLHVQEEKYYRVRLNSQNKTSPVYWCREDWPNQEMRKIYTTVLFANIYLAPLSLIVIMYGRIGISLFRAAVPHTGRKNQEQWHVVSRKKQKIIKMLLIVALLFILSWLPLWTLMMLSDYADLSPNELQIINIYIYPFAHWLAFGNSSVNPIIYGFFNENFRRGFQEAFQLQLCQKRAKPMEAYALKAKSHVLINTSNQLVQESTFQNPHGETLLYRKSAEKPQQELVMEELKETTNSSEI

[6] = target: T4, rat neuropeptide FF receptor (NPFF2) (rat, UniProt Q9EQD2 1-417); experiment: competition with [125I]D-Tyr-NPFF; rat NPFF2 against rat NPFF1
T4 construct: Full-length cloned receptor; Also the native receptor in rat brain sections (autoradiography); also called rat NPFF2
T4 sequence (Q9EQD2 whole entry): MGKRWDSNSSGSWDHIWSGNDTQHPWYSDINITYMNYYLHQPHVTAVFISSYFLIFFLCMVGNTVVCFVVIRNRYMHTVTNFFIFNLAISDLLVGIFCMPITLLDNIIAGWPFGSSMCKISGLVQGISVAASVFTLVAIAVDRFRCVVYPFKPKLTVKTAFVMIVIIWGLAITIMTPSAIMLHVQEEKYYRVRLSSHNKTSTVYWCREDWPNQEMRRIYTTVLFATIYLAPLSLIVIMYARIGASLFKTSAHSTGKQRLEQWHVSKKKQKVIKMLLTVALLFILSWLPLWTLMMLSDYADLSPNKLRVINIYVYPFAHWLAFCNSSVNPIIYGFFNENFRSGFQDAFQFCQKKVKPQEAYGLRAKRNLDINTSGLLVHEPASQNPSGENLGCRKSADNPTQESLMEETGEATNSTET
Excerpt: (§2) Additional pharmacological evaluation was done using 293 human embryonic kidney cells (HEK-293 cells) transiently expressing the genes encoding the human NPFF1, NPFF2, and rat NPFF1 receptors, as well as Cos-7 cells expressing the rat NPFF2 receptors.

[7] = target: T3, human NPFF2b (hNPFF2) receptor; experiment: competition with [125I]D-Tyr-NPFF; human NPFF2 against human NPFF1
Excerpt: as §2

[8] = target: T1, rat neuropeptide FF receptor (NPFF1); experiment: competition with [125I]D-Tyr-NPFF, HEK-293 cells with the cloned receptor
Excerpt: as §2

[9] = target: T2, human neuropeptide FF receptor (NPFF1); experiment: as above
Excerpt: as §2

[10] = target: T3, human NPFF2b (hNPFF2) receptor; experiment: as above
Excerpt: as §2

[11] = target: T4, rat neuropeptide FF receptor (NPFF2); experiment: competition with [125I]D-Tyr-NPFF, cloned receptor (head: HEK-293; text: Cos-7)
Excerpt: as §2

[12] = target: T5, rat neuropeptide FF receptor (NPFF1) (rat), Q9EP86; experiment: competition with [125I]D-Tyr-NPFF, membranes of COS-7 cells with rat NPFF1
T5 chain: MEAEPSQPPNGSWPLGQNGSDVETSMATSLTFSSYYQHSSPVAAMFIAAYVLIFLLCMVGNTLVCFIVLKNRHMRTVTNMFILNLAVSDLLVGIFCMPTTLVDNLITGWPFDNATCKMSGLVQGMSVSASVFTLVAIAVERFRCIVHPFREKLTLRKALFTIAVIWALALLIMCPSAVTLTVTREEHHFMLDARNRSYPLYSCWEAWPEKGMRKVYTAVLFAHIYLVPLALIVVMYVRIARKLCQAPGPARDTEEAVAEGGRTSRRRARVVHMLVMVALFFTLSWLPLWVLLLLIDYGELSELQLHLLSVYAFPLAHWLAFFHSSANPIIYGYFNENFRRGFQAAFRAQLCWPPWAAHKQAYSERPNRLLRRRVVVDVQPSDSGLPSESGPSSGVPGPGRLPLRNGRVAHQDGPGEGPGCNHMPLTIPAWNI

[13] = target: T1, rat neuropeptide FF receptor (NPFF1); experiment: cell-based or functional assay
[14] = target: T4, rat neuropeptide FF receptor (NPFF2); experiment: radioligand saturation binding, Cos-7 cells expressing rat NPFF2
Excerpt: as §2

[15] = target: T4, rat neuropeptide FF receptor (NPFF2); experiment: radioligand binding to cloned rat NPFF2, as told in the discussion
[16] = target: T1, rat neuropeptide FF receptor (NPFF1); experiment: radioligand saturation binding, transiently transfected HEK-293 cells
[17] = target: T2, human neuropeptide FF receptor (NPFF1); experiment: as above
[18] = target: T3, human NPFF2b (hNPFF2) receptor; experiment: as above
[19] = target: T1, rat neuropeptide FF receptor (NPFF1); experiment: radioligand saturation binding, membranes of Cos-7 cells transiently expressing rat NPFF1
Excerpt: as §1

[20] = target: T1, rat neuropeptide FF receptor (NPFF1); experiment: cell-based or functional assay; remark: listed apart in the source
[21] = target: T4, rat neuropeptide FF receptor (NPFF2); experiment: competition binding, HEK-293 cells with the cloned receptor

(2D)Y8Fa (peptide)
pKi [1]: 9.21
pKi [2]: 8.33

Neuropeptide F
pKi [1]: 8.1
pKi [3]: 6.11

Dynorphin A1-13 (from UniProt P01213 207-219) (peptide)
pKi [1]: 5.7

(3D)Y8Fa (peptide)
pKi [1]: 9.12
pKi [2]: 8.62

(2DME)Y8Fa (peptide)
pKi [1]: 9.57
pKi [2]: 9.2

desamino-nor-Y8Ra (peptide)
pKi [1]: 7.51
pKi [3]: 7.27

Neuropeptide FF (NPFF)
pKi [1]: 9.05

CGRP (peptide)
pKi [1]: 5
pKi [3]: 5

APSEPHHPGDQATQDQLAQYYSDLYQYITFVTRPRF (not fully specified; ends and bridges not checked, also called fPP) [Frog pancreatic polypeptide (frog PP) (Rana Temporaria)]
% of NPPF Response, intracellular calcium mobilization [4]: 0 % of NPPF Response
pEC50, intracellular calcium mobilization [4]: < 5
% of NPPF Response, intracellular calcium mobilization [5]: 78 % of NPPF Response
pEC50, intracellular calcium mobilization [5]: 6.7
pKi [1]: 9.12
fold greater affinity than for the NPFF1 receptor [6]: 31 fold
fold greater affinity than for the NPFF1 receptor [7]: 77 fold
pKi [8]: 5.4
pKi [9]: 5.9
pKi [10]: 7.4
pKi [3]: 5.5
pKi [11]: 7.3

APLEPVYPGDNATPEQMAQYAADLRRYINMLTRPRY (peptide, UniProt P01298 30-65, looked up) [hPP]
pKi [1]: 5
pKi [3]: 5

DYMGWMDF (peptide, UniProt P06307 96-103, looked up, species assumed, ends and bridges not checked) [CCK8]
pKi [1]: 5
pKi [3]: 5

GWTLNSAGYLLGPHAVGNHRSFSDKNGLTS (peptide, UniProt P22466 33-62, looked up, species assumed, Galanin) [galanin]
pKi [1]: 5
pKi [3]: 5

YGGFMRF-OH [Met5-Arg6-Phe7-Enk-OH]
pKi [1]: 5
pKi [3]: 5

YPLG (modifications not checked) [Tyr-MIF-1]
pKi [1]: 5
pKi [12]: 5

MPRVRSLFQEQEEPEPGMEEAGEMEQKQLQ (peptide, UniProt Q13519 98-127, looked up, species assumed, Nocistatin) [nocistatin]
pKi [1]: 5
pKi [3]: 5

B1: (D-Tyr^1-(NMe)Phe^3)NPFF (peptide)
peptide: [dY]L[NMeF]QPQRF-NH2
modifications: N-terminus assumed
SMILES: CC(C)C[C@H](NC(=O)[C@H](N)Cc1ccc(O)cc1)C(=O)N(C)[C@@H](Cc1ccccc1)C(=O)N[C@@H](CCC(N)=O)C(=O)N1CCC[C@H]1C(=O)N[C@@H](CCC(N)=O)C(=O)N[C@@H](CCCNC(=N)N)C(=O)N[C@@H](Cc1ccccc1)C(N)=O
notes: also called D-Tyr-NPFF; (1DMe)Y8Fa
pKi [1]: 9.72
pKi [8]: 8.8
pKi [9]: 8.1
pKi [10]: 8.5
pKi [3]: 8.55
pKi [11]: 8.7

AGEGLSSPFWSLAAPQRF-NH2 (also called NPAF) [rat A-18-F-amide]
EC50, extracellular acidification rate (microphysiometry), CHO cells with NPFF1 alone [13]: 150 nM
pKi [1]: 9
pKi [8]: 7.5
pKi [9]: 7.2
pKi [10]: 8.9
pKi [3]: 7.5
pKi [11]: 8.2

B2: [Y^9]A18Fa (peptide)
peptide: AGEGLSSPYWSLAAPQRF-NH2
notes: also called [Y^9]A18Famide; [tyr^9]A-18-F-amide
pKi [1]: 8.5
pKi [3]: 7.56

FMRF-NH2 [FMRF amide]
pKi [1]: 8.49
pKi [8]: 8.7
pKi [9]: 9.1
pKi [10]: 8.4
pKi [3]: 8.48
pKi [11]: 8

FFRF (ends and bridges not checked)
pKi [1]: 8.98
pKi [3]: 8

FTRF (ends and bridges not checked)
pKi [1]: 8.16
pKi [3]: 7.87

PMRF-NH2 [PMRFa]
pKi [1]: 9.37
pKi [3]: 8.55

B3: PQRF-amide (peptide)
peptide: PQRF-NH2
notes: C-terminal tetrapeptide of NPFF; also called PGRF-amide [sic]
% of NPPF Response, intracellular calcium mobilization [4]: 93 % of NPPF Response
pEC50, intracellular calcium mobilization [4]: 6.7
% of NPPF Response, intracellular calcium mobilization [5]: 94 % of NPPF Response
pEC50, intracellular calcium mobilization [5]: 7
pKi [8]: 7.6
pKi [9]: 7.4
pKi [10]: 7.6
pKi [3]: 8.18
pKi [11]: 7.6

YLFQPQRF-NH2 (also called Y8Famide; Y-8-F-amide) [Y8Fa]
pKi [1]: 9.19
pKi [3]: 8.38

B4: AF-1 (peptide)
peptide: H-KNQFIRF-NH2
notes: Printed as H2N-Lys-Asn-Gln-Phe-Ile-Arg-Phe-NH2; also called FMRF-like peptide
pKi [1]: 7.56
pKi [3]: 6.63

B5: AF-2 (peptide)
peptide: H-KHQYLRF-NH2
notes: Printed as H-Lys-His-Gln-Tyr-Leu-Arg-Phe-NH2
pKi [1]: 7.96
pKi [3]: 7.02

PDVDHVFLRF-NH2 (also called SchistFLRF) [Schisto(FLRFNH2)]
pKi [1]: 6.39
pKi [3]: 5.96

B6: Met5-Arg6-Phe7-Enk-NH2 (peptide)
peptide: YGGFMRF-NH2
notes: also called Met-Enk-NH2; Met^5, Arg^6, Phe^7-NH2 enkephalinamide
pKi [1]: 8.4
pKi [3]: 7.35

[dY](125I)L[NMeF]QPQRF-NH2 [[^125I][D-Tyr^1-(NMe)Phe^3]NPFF]
Kd [14]: 0.17 nM
Kd [15]: 0.22 nM
Kd [16]: 0.65 nM
Kd [17]: 0.46 nM
Kd [18]: 0.17 nM
Kd [19]: 0.335 nM

B7: Neuropeptide FF (NPFF) (peptide)
peptide: FLFQPQRF-NH2
notes: bought from Bachem; also called F-8-Fa; F8Famide
EC50, extracellular acidification rate (microphysiometry), CHO cells with NPFF1 alone [13]: 19.3 nM
EC50, extracellular acidification rate (microphysiometry), CHO cells with NPFF1 and the Gz/Gq chimera [13]: 27.7 nM
EC50, total inositol phosphate release, Cos-7 cells with NPFF1 [13]: 23 nM
EC50, functional activity in COS-7 cells [20]: 9.3 nM
pKi [21]: 8.2

FMRF (D-Met in place of L-Met, C-terminal amide, also called the D-Met analog) [D-Met-FMRF amide]
pKi [8]: 6.2
pKi [9]: 6.6
pKi [10]: 6.4
pKi [11]: 6.2
